Numbering of substitutions follows the chain as printed.
Key:
Test in all cases: cell_activity; maize
Details in all cases: tags: SV40 NLS
[1] = molecular target: T1, MHP77.3(L9-02) (artificial)
T1 chain: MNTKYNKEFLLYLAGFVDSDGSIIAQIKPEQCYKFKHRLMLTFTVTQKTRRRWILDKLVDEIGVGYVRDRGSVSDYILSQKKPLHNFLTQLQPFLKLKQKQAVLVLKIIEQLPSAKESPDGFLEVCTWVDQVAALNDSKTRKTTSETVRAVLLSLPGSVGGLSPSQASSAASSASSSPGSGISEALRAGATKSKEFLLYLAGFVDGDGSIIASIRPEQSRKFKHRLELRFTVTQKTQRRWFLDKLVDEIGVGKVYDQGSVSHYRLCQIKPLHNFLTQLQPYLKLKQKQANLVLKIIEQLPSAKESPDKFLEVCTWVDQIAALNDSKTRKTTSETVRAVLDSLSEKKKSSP

[2] = molecular target: T2, MHP77.3 (artificial)
T2 chain: T1 chain with S19G, R50Q, I54F, K81I, V103N, G121K, V132I, L153D, Y281F

[3] = molecular target: T3, MHP77.3(L9-11) (artificial)
T3 chain: T1 chain with S19G, R50K, I54F, V103N, V132I, Y281F, V316A

[4] = molecular target: T4, MHP77.3(L9-12) (artificial)
T4 chain: T1 chain with R50Q, D56L, K81I, V103N, G121K, V132I, K244E, K308G

[5] = molecular target: T5, MHP77.3(15) (artificial)
T5 chain: T1 chain with R50Q, I54F, K81I, V103N, G121K, V132I, L153D, Y281F

B1: MHP77 recognition site (dsDNA)
DNA 1: GGGCGGTATGTATGTCATACTA
DNA 2: TAGTATGACATACATACCGCCC
[1]
  activity: 5 % target site mutation rate
[2]
  activity: 11 % target site mutation rate
[3]
  activity: 35 % target site mutation rate
[4]
  activity: 19 % target site mutation rate
[5]
  activity: 22 % target site mutation rate

— patent publication US20140223606, “COMPOSITIONS AND METHODS COMPRISING SEQUENCES HAVING MEGANUCLEASE ACTIVITY” (PIONEER HI BRED INTERNATIONAL INC, published 2014)
